From paper PMC10980018

Biological target: HKU5-20s trimeric ectodomain with 2P stabilizing mutations (merbecovirus HKU5-20s (host Pipistrellus abramus))
Assay: cryo-EM structure

## HKU5-20s trimeric ectodomain with 2P stabilizing mutations (domain or fragment)
  stoichiometry N: 3
